Tests used:
Assay in all cases: cell-based or functional assay
[1] = target: Env of HIV-1 pseudovirus 249M B10 (HIV-1)
[2] = target: Env of HIV-1 pseudovirus 6535.3 (HIV-1)
[3] = target: Env of HIV-1 pseudovirus 928-28 (HIV-1)
[4] = target: Env of HIV-1 pseudovirus CAAN5342.A2 (HIV-1)
[5] = target: Env of HIV-1 pseudovirus CAP45.2.00.G3 (HIV-1)
[6] = target: Env of HIV-1 pseudovirus Ce0393_C3 (HIV-1)
[7] = target: Env of HIV-1 pseudovirus Ce1086_B2 (HIV-1)
[8] = target: Env of HIV-1 pseudovirus Ce2010_F5 (HIV-1)
[9] = target: Env of HIV-1 pseudovirus Ce704809221_1B3 (HIV-1)
[10] = target: Env of HIV-1 pseudovirus HIV-001428-2.42 (HIV-1)
[11] = target: Env of HIV-1 pseudovirus HIV-16055-2.3 (HIV-1)
[12] = target: Env of HIV-1 pseudovirus HIV-16845-2.22 (HIV-1)
[13] = target: Env of HIV-1 pseudovirus QH0692.42 (HIV-1)
[14] = target: Env of HIV-1 pseudovirus WEAU_d15_410_787 (HIV-1)
[15] = target: Env of HIV-1 pseudovirus ZM109F.PB4 (HIV-1)
[16] = target: HIV-1 Env pseudovirus 1054_07_TC4_1499 (HIV-1)
[17] = target: HIV-1 Env pseudovirus 246F C1G (HIV-1)
[18] = target: HIV-1 Env pseudovirus 249M B10 (HIV-1)
[19] = target: HIV-1 Env pseudovirus 62357_14_D3_4589 (HIV-1)
[20] = target: HIV-1 Env pseudovirus 6240_08_TA5_4622 (HIV-1)
[21] = target: HIV-1 Env pseudovirus 6244_13_B5_4576 (HIV-1)
[22] = target: HIV-1 Env pseudovirus AC10.0.29 (HIV-1)
[23] = target: HIV-1 Env pseudovirus BF1266.431a (HIV-1)
[24] = target: HIV-1 Env pseudovirus CAP210.2.00.E8 (HIV-1)
[25] = target: HIV-1 Env pseudovirus CNE19 (HIV-1)
[26] = target: HIV-1 Env pseudovirus CNE30 (HIV-1)
[27] = target: HIV-1 Env pseudovirus CNE58 (HIV-1)
[28] = target: HIV-1 Env pseudovirus Ce1172_H1 (HIV-1)
[29] = target: HIV-1 Env pseudovirus Ce704809221_1B3 (HIV-1)
[30] = target: HIV-1 Env pseudovirus Du172.17 (HIV-1)
[31] = target: HIV-1 Env pseudovirus HIV-001428-2.42 (HIV-1)
[32] = target: HIV-1 Env pseudovirus RHPA4259.7 (HIV-1)
[33] = target: HIV-1 Env pseudovirus ZM109F.PB4 (HIV-1)
[34] = target: HIV-1 Env pseudovirus ZM233M.PB6 (HIV-1)

Substance PG16 (antibody) has an IC50 [1] of 0.026 µg/mL, an IC80 [1] of 1.25 µg/mL and an IC50 [2] of 0.653 µg/mL. For the same substance, the IC80 [2] was greater than 50 µg/mL, the IC50 [3] was 0.034 µg/mL and the IC80 [3] was 0.237 µg/mL. It also gave an IC50 [4] of 1.83 µg/mL, an IC80 [4] of 33 µg/mL and an IC50 [5] of 0.001 µg/mL. The IC80 [5] was 0.003 µg/mL, the IC50 [6] was 0.002 µg/mL and the IC80 [6] was 0.006 µg/mL. For the same substance, the IC50 [7] was greater than 50 µg/mL, the IC80 [7] was greater than 50 µg/mL and the IC50 [8] was greater than 50 µg/mL. The IC80 [8] was greater than 50 µg/mL, the IC50 [9] was 0.021 µg/mL and the IC80 [9] was 0.116 µg/mL. It also gave an IC50 [10] of 0.039 µg/mL, an IC80 [10] of 0.25 µg/mL and an IC50 [11] of 0.17 µg/mL. It also gave an IC80 [11] greater than 0.25 µg/mL, an IC50 [12] of 3.13 µg/mL and an IC80 [12] greater than 50 µg/mL. For the same substance, the IC50 [13] was greater than 50 µg/mL, the IC80 [13] was greater than 50 µg/mL and the IC50 [14] was 0.435 µg/mL. For the same substance, the IC80 [14] was greater than 50 µg/mL, the IC50 [15] was 7.03 µg/mL and the IC80 [15] was greater than 50 µg/mL.
N49P11 (antibody) was tested, and the IC50 [16] was 2.92 µg/mL, the IC80 [16] was 13.1 µg/mL and the MPI [16] was 100. It also gave an IC50 [17] of 8.48 µg/mL, an IC80 [17] of 20.9 µg/mL and an MPI [17] of 100. For the same substance, the IC50 [18] was 3.54 µg/mL, the IC80 [18] was 12.9 µg/mL and the MPI [18] was 100. The IC50 [19] was 0.599 µg/mL, the IC80 [19] was 3.56 µg/mL and the MPI [19] was 100. The IC50 [20] was 0.72 µg/mL, the IC80 [20] was 3 µg/mL and the MPI [20] was 100. It also gave an IC50 [21] of 1.12 µg/mL, an IC80 [21] of 5.45 µg/mL and an MPI [21] of 100. It also gave an IC50 [22] of 5.52 µg/mL, an IC80 [22] of 20 µg/mL and an MPI [22] of 100. It also gave an IC50 [23] of 0.998 µg/mL, an IC80 [23] of 7.13 µg/mL and an MPI [23] of 100. The IC50 [24] was 5.12 µg/mL, the IC80 [24] was 19.4 µg/mL and the MPI [24] was 100. The IC50 [25] was 0.437 µg/mL, the IC80 [25] was 5.5 µg/mL and the MPI [25] was 100. For the same substance, the IC50 [26] was 0.889 µg/mL, the IC80 [26] was 4.45 µg/mL and the MPI [26] was 100. The IC50 [27] was 0.038 µg/mL, the IC80 [27] was 0.135 µg/mL and the MPI [27] was 100. For the same substance, the IC50 [28] was 3.55 µg/mL, the IC80 [28] was 19.2 µg/mL and the MPI [28] was 100. For the same substance, the IC50 [29] was 0.644 µg/mL, the IC80 [29] was 3.3 µg/mL and the MPI [29] was 100. The IC50 [30] was 5.65 µg/mL, the IC80 [30] was 17.9 µg/mL and the MPI [30] was 100. The IC50 [31] was 0.221 µg/mL, the IC80 [31] was 1.64 µg/mL and the MPI [31] was 100. It also gave an IC50 [32] of 0.202 µg/mL, an IC80 [32] of 0.956 µg/mL and an MPI [32] of 100. It also gave an IC50 [33] of 5.2 µg/mL, an IC80 [33] of 19.4 µg/mL and an MPI [33] of 100. The IC50 [34] was 5.92 µg/mL, the IC80 [34] was 18.5 µg/mL and the MPI [34] was 100.
Substance N49P18.1 (antibody) has an IC50 [16] greater than 50 µg/mL, an IC80 [16] greater than 50 µg/mL and an MPI [16] of 0. The IC50 [17] was 3.4 µg/mL, the IC80 [17] was 20.2 µg/mL and the MPI [17] was 97. For the same substance, the IC50 [18] was 5.71 µg/mL, the IC80 [18] was 23.1 µg/mL and the MPI [18] was 94. For the same substance, the IC50 [19] was 10.4 µg/mL, the IC80 [19] was 48 µg/mL and the MPI [19] was 82. The IC50 [20] was 35.2 µg/mL, the IC80 [20] was greater than 50 µg/mL and the MPI [20] was 60. It also gave an IC50 [21] of 33.4 µg/mL, an IC80 [21] greater than 50 µg/mL and an MPI [21] of 61. The IC50 [22] was 20 µg/mL, the IC80 [22] was greater than 50 µg/mL and the MPI [22] was 71. It also gave an IC50 [23] of 3.48 µg/mL, an IC80 [23] of 20.8 µg/mL and an MPI [23] of 93. The IC50 [24] was greater than 50 µg/mL, the IC80 [24] was greater than 50 µg/mL and the MPI [24] was 11. It also gave an IC50 [25] of 2.34 µg/mL, an IC80 [25] of 9.64 µg/mL and an MPI [25] of 99. The IC50 [26] was 13.1 µg/mL, the IC80 [26] was 32.2 µg/mL and the MPI [26] was 93. For the same substance, the IC50 [27] was 1.92 µg/mL, the IC80 [27] was 5.26 µg/mL and the MPI [27] was 100. It also gave an IC50 [28] of 46.4 µg/mL, an IC80 [28] greater than 50 µg/mL and an MPI [28] of 52. It also gave an IC50 [29] of 41.6 µg/mL, an IC80 [29] greater than 50 µg/mL and an MPI [29] of 59. It also gave an IC50 [30] of 6.52 µg/mL, an IC80 [30] of 21.3 µg/mL and an MPI [30] of 92. For the same substance, the IC50 [31] was 1.13 µg/mL, the IC80 [31] was 8.31 µg/mL and the MPI [31] was 100. It also gave an IC50 [32] of 4.34 µg/mL, an IC80 [32] of 21.4 µg/mL and an MPI [32] of 98. The IC50 [33] was 26.6 µg/mL, the IC80 [33] was greater than 50 µg/mL and the MPI [33] was 69. The IC50 [34] was 38.4 µg/mL, the IC80 [34] was greater than 50 µg/mL and the MPI [34] was 57.
